This note sets out measurements from article PMC11667970, “Mycobacterium tuberculosis Mce3R TetR-like Repressor Forms an Asymmetric Four-Helix Bundle and Binds a Nonpalindrome Sequence†” (ACS Chemical Biology, 2024).

Where “and” joins values, the source holds several entries; their conditions need not be identical. Equal entries are not always repeated.

What is called stoichiometry N is the number of molecules, sites or subunits per partner or assembly.

Data set [1] deals with the molecule itself. The data set can be described thus: SEC; M1 on Superdex 200 HiLoad 16:60, Buffer E (20 mM Tris-HCl pH 7.5, 0.2 M NaCl); two peaks (Figure S1B). For orientation: In gel filtration, larger molecules generally elute earlier.
Data set [2] concerns the molecule itself. The data set can be described thus: SEC.
The target of data set [3] is T1, Mce3R R53A (Mycobacterium tuberculosis H37Rv, UniProt P95251 1-406, R53A).
T1 sequence: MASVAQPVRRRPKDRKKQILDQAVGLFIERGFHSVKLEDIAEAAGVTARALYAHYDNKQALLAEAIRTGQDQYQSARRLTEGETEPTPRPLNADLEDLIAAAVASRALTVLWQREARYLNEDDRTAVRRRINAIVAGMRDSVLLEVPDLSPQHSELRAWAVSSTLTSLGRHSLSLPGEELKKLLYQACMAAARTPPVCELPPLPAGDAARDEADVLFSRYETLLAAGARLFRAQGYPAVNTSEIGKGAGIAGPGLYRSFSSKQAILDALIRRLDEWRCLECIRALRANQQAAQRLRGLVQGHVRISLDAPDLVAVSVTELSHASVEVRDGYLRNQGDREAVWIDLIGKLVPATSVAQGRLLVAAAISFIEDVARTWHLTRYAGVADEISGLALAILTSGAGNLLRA
The data set can be described thus: EMSA; 0-128 nM; high-affinity binding lost. The conditions noted are these: protein: recombinant; tags: MBP-His6 N-terminal, removed with TEV (same protocol as WT); chain copies: 2; label: 5'-Cy3 (forward strand); blunt.

B1: M1, N-terminal TFR segment of Mce3R (amino acids 13-193) (domain or fragment)
chain: KDRKKQILDQAVGLFIERGFHSVKLEDIAEAAGVTARALYRHYDNKQALLAEAIRTGQDQYQSARRLTEGETEPTPRPLNADLEDLIAAAVASRALTVLWQREARYLNEDDRTAVRRRINAIVAGMRDSVLLEVPDLSPQHSELRAWAVSSTLTSLGRHSLSLPGEELKKLLYQACMAAAR
notes: Mce3R (Rv1963c), Mycobacterium tuberculosis H37Rv, amino acids 13-193 (M1); calculated monomer MW 20.2 kDa; also called M1 homotetramer; M1 homodimer
B1: the “stoichiometry N” value in data set [1] was 4 and 2.

B2: Mce3R R53A variant (natural protein)
chain: MASVAQPVRRRPKDRKKQILDQAVGLFIERGFHSVKLEDIAEAAGVTARALYAHYDNKQALLAEAIRTGQDQYQSARRLTEGETEPTPRPLNADLEDLIAAAVASRALTVLWQREARYLNEDDRTAVRRRINAIVAGMRDSVLLEVPDLSPQHSELRAWAVSSTLTSLGRHSLSLPGEELKKLLYQACMAAARTPPVCELPPLPAGDAARDEADVLFSRYETLLAAGARLFRAQGYPAVNTSEIGKGAGIAGPGLYRSFSSKQAILDALIRRLDEWRCLECIRALRANQQAAQRLRGLVQGHVRISLDAPDLVAVSVTELSHASVEVRDGYLRNQGDREAVWIDLIGKLVPATSVAQGRLLVAAAISFIEDVARTWHLTRYAGVADEISGLALAILTSGAGNLLRA
notes: not shown: MBP, N-terminal, cleaved; His6, N-terminal, cleaved
For B2, the “stoichiometry N” value in data set [2] was 2 and 4.

B3: Probe A (dsDNA)
DNA 1: GCCCCGCGCTATAGGATACTAGCAAGATACATCATAGCCAATATATGCCAGTTTGCATTGCTATTTACCGATCAGTTGTCCAAGCAATCGCGTATTGGCTATGGACATCAGCGGTTCTGCCGC
DNA 2: GCGGCAGAACCGCTGATGTCCATAGCCAATACGCGATTGCTTGGACAACTGATCGGTAAATAGCAATGCAAACTGGCATATATTGGCTATGATGTATCTTGCTAGTATCCTATAGCGCGGGGC
For the molecule B3, the binding result in data set [3] was “no binding”.
